According to patent publication US20020164762:
Residue numbers refer to the chain shown, from its start. Names may count otherwise.

T1: Acetyl-Tyr-Val-Ala-Asp-pNA
T1 chain: YVAD

T2: Acetyl-Asp-Glu-Val-Asp-pNA
T2 chain: DEVD

B1: D381E N-His ICE (D381E-modified human interleukin-1β converting enzyme, p20/p10, with N-terminal polyhistidine tag) (protein)
chain 1: HHHHHHNPAMPTSSGSEGNVKLCSLEEAQRIWKQKSAEIYPIMDKSSRTRLALIICNEEFDSIPRRTGAEVDITGMTMLLQNLGYSVDVKKNLTASDMTTELEAFAHRPEHKTSDSTFLVFMSHGIREGICGKKHSEQVPDILQLNAIFNMLNTKNCPSLKDKPKVIIIQACRGDSPGVVWFKD
chain 2: AIKKAHIEKDFIAFCSSTPDNVSWRHPTMGSVFIGRLIEHMQEYACSCDVEEIFRKVRFSFEQPEGRAQMPTTERVTLTRCFYLFPGH
B2: WT N-His ICE (wild-type human interleukin-1β converting enzyme, p20/p10, with N-terminal polyhistidine tag) (protein)
chain 1: B1 chain 1
chain 2: B1 chain 2 with E65D

What was measured:
[1] = target: T1, Acetyl-Tyr-Val-Ala-Asp-pNA
[2] = target: T2, Acetyl-Asp-Glu-Val-Asp-pNA

| Protein | Km values [1] | Vmax values (M^-1 s^-1) [1] | Km values [2] | Vmax values (M^-1 s^-1) [2] |
| --- | --- | --- | --- | --- |
| B1 | 43 µM | 0.19 | 44 µM | 0.08 |
| B2 | 26 µM | 0.04 | 25 µM | 0.02 |
